Assay [1] concerns the target mouse FAP (fibroblast activation protein alpha) overexpressed in B16F10 cells (B16F10-mFAP) (mouse) (UniProt P97321). The assay is described as follows: flow cytometry on B16F10-mFAP cells, anti-mouse IgG2a antibody alone.
A further assay concerns the target B16F10. The assay is described as follows: flow cytometry on parental B16F10 cells, anti-mouse IgG2a antibody alone. (Flow cytometry measures light scatter and fluorescence of single cells or particles in a stream.)
Assay [2] addresses human FAP (fibroblast activation protein alpha) overexpressed in HEK293 cells (HEK293-hFAP) (human) (UniProt Q12884). The experiment in a line: flow cytometry on HEK293-hFAP cells, anti-human IgG antibody alone.
Assay [3] concerns the target IL-12 receptor of human T cells (human) (UniProt P42701). The experiment in a line: cell-based or functional assay.

This is an account of results in US20250144178A1, “PHARMACEUTICAL COMPOSITION FOR CANCER TREATMENT COMPRISING FUSION PROTEIN INCLUDING IL-12 AND ANTI-FAP ANTIBODY AND ANTICANCER AGENT” (KANAPH THERAPEUTICS INC., priority 2022, published 2025).

mouse FAP (fibroblast activation protein alpha) overexpressed in B16F10 cells (B16F10-mFAP) (mouse), sequence (P97321 whole entry): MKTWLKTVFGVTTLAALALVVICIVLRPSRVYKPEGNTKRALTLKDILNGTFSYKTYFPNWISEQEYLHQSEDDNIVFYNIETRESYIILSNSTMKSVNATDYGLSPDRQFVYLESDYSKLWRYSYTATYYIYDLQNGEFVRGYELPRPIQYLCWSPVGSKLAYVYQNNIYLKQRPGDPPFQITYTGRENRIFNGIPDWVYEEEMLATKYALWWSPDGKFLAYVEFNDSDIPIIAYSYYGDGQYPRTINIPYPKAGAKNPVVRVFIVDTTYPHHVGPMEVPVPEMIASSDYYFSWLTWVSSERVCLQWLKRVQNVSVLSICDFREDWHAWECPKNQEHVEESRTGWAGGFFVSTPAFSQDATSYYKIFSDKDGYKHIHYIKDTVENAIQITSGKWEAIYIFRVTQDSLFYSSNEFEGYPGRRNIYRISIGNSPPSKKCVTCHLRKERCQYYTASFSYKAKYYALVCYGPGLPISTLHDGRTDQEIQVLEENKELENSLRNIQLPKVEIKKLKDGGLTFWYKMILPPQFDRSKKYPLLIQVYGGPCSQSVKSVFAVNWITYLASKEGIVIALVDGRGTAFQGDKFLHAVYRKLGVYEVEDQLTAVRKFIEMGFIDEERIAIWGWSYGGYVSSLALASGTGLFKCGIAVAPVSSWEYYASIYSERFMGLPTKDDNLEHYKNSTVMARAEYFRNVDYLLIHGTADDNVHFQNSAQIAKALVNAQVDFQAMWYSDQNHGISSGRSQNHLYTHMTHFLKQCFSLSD
human FAP (fibroblast activation protein alpha) overexpressed in HEK293 cells (HEK293-hFAP) (human), sequence (Q12884 whole entry): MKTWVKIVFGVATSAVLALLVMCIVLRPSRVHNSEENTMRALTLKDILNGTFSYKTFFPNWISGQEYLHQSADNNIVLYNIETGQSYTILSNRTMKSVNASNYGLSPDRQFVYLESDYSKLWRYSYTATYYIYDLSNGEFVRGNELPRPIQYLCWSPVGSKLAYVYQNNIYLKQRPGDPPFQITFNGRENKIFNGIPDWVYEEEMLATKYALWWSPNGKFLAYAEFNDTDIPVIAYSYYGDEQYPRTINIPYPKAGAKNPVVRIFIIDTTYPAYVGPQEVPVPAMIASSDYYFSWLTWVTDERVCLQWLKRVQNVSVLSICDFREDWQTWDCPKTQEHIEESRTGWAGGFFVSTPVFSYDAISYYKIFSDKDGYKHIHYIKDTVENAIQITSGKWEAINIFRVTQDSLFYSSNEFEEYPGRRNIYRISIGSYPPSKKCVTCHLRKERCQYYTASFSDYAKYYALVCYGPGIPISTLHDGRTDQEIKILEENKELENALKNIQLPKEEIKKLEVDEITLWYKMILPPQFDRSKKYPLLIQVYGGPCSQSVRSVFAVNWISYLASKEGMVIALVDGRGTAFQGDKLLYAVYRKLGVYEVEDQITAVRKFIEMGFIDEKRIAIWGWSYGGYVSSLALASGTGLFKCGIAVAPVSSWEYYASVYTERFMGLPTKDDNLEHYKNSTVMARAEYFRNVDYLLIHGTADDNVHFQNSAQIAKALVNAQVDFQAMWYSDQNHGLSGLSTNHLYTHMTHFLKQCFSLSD
IL-12 receptor of human T cells (human), sequence (Q99665 24-862, chain 2 of 2, other chains not shown): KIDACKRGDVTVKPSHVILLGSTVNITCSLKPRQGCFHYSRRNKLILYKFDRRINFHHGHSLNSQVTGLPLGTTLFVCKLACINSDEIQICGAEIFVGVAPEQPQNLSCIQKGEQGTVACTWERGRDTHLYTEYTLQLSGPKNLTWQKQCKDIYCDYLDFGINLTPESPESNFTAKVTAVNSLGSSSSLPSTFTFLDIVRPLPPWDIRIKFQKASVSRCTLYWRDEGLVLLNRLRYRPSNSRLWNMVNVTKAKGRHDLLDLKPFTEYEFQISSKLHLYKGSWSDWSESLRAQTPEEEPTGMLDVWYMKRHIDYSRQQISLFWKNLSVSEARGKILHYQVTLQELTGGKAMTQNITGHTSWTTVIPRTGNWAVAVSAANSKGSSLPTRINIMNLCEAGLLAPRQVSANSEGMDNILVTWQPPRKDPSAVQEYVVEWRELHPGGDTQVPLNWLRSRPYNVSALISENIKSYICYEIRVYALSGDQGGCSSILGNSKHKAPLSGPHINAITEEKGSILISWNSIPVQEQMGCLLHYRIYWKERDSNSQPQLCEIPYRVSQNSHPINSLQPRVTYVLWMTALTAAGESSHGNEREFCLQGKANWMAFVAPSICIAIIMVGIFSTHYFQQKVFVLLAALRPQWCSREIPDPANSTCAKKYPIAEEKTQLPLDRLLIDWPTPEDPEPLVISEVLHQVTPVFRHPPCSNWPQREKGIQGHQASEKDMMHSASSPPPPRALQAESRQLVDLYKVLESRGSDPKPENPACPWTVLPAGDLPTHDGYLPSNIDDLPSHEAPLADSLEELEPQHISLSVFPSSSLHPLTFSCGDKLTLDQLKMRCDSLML

2nd Ab only (antibody): the percent of cells in the positive gate (mFAP-PE) in assay [1] was 3.44%; with B16F10, 1.04%. Regarding 2nd only (antibody), in assay [2], the percent of cells in the positive gate (hFAP-PE) was determined as 0.16%.

For the substance “recombinant human IL-12 (from UniProt P29459 23-219; P29460 23-328) (ligand)”, the half maximal effective concentration (EC50) of p-STAT4 (Tyr693), AlphaLISA, activated human T cells in assay [3] amounted to 8.95 pM.
